Read-outs that look alike come from different tables or passages of the source. Where a SMILES comes first, the peptide text is derived from it.
Key:
[1] = AFM imaging of peptide and peptide/siRNA nanostructure; type: physicochemical; settings: for Diameter of the nanospheres / Nanostructure of peptide: peptide alone
From the text: Nanostructure plays an important role in formulation of agents (e.g., therapeutics, such as siRNA).

MCF-7 cell = experiment: Cell toxicity, luciferase emission with peptides only or peptides/negative control siRNA; type: cell-based
From the text: siRNA (Luciferase GL3 duplex) was complexed with Ac-A4K-NH2 (SEQ ID NO: 55), Ac-A3KA3-NH2 (SEQ ID NO:55), Ac-A6K-NH2 (SEQ ID NO: 105), and a control agent (DharmaFECT 1; commercially available lipid transfection agent). The siRNA and peptide complexes arranged into nanospherical structures. A composition comprising the nanospherical structures was provided to tumor cells (MCF-7 cell; breast cancer cell line) in vitro to preliminary transfection efficacy and cell toxicity. Two methods were utilized for the present Example. For Method 1, MCF-7 cells were cultured on a plate. The siRNA and peptide complexes were added into the culture medium over the cells. The culture dish (96 wells) containing the siRNA and peptide complexes and the cells was incubated for 48 hours. For Method 2, a concentrated suspension of MCF-7 cells (5×10^6 cells/ml) was prepared in a tube. The siRNA and peptide complexes were applied into the suspension. The cell mixture was incubated for 1 hour in the tube. The cell mixture was plated in the culture dish and incubated for 48 hours. Luciferase emission from each sample was observed. Table 4 summarizes experimental conditions e.g., concentration of siRNA and peptide surfactants, charge ratio, and types of siRNA (e.g., Luciferase GL3 duplex or negative control thereof). The buffer used in this Example was Opti-MEM1 (serum-free). As control samples, buffer only, negative control (NC) siRNA with or without the peptide surfactants, DharmaFECT 1 with or without siRNA (or NC siRNA) were tested with the cells. Cell toxicity.

mouse tumor model = experiment: Delivery of siRNA to tumor cells in vivo; settings: siRNA/peptide complex administered to mouse tumor model
Protocol: The present Example describes, among other things, an exemplary use of surfactant peptides for delivery of siRNA to tumor cells in vivo. siRNA is complexed with Ac-A4K-NH2 (SEQ ID NO: 55), Ac-A3KA3-NH2 (SEQ ID NO:55), Ac-A6K-NH2 (SEQ ID NO: 105), or a control peptide. The siRNA and peptide complexes arrange into nanospherical structures. A composition comprising the nanospherical structures is administered to a mouse tumor model. One or more cancer associated genes is suppressed and the size of the tumor decreases.

[2] = Zeta potential by Zetasizer Nano ZS; type: physicochemical; settings: 0.5 w/v % in an aqueous solution; in mV (unit assumed)
Protocol: Zeta potentials were measured by Zetasizer Nano ZS (Malvern) to characterize electrokinetic potential of the complex. Ac-A4K-NH2 (SEQ ID NO:55) concentration was 0.5 w/v % in an aqueous solution. siRNA (ribophorin II, RPN2) concentration was controlled for their various charge ratios of A4K/siRNA. The zeta potential of Ac-A4K-NH2 (SEQ ID NO:55) alone was +21.9, which represents that the surface of A4K nanosphere was positively charged because of the primary amine of lysine in Ac-A4K-NH2 (SEQ ID NO:55). As the equipment only detects dispersed phases larger than about 3.8 nm and the size of siRNA in water is about 2 nm in diameter, the measurement only reads the electrokinetic potential of Ac-A4K-NH2 (SEQ ID NO:55) or Ac-A4K-NH2 (SEQ ID NO:55)/siRNA complexes, not unassociated siRNA.

[3] = Transmittance study of surfactant peptides and peptide/siRNA complexes in aqueous solution; type: physicochemical; settings: for Transmittance (%) With siRNA (peptide %/siRNA %) 0.1%/0.01%: peptide 0.1%/siRNA 0.01%; for Transmittance (%) With siRNA (peptide %/siRNA %) 0.1%/0.01% / Transmittance (%) With siRNA (peptide %/siRNA %) 0.5%/0.05% / Transmittance (%) Peptide alone 0.1% (w/v) / Transmittance (%) Peptide alone 0.5% (w/v): aqueous solution pH 7.5; for Transmittance (%) With siRNA (peptide %/siRNA %) 0.1%/0.01% / Transmittance (%) With siRNA (peptide %/siRNA %) 0.5%/0.05%: * = significantly cloudy and phase-separated; for Transmittance (%) With siRNA (peptide %/siRNA %) 0.5%/0.05%: peptide 0.5%/siRNA 0.05%; for Appearance of peptide mixed with siRNA in transmittance study: peptide 0.1% and 0.5% (w/v) with siRNA 0.01% and 0.05% (w/v), pH 7.5
[4] = literature reports; cited from earlier work
[5] = MCF-7, peptide only or with NC siRNA, 48 hours, Methods 1 and 2

| Diameter of the nanospheres [1] [nm] | Zeta potential of peptide alone [2] | Thickness of each layer of double layer structure ([1]; 0.1% (w/v)) [nm] | Molecule | Nanostructure of peptide [1] | Cell toxicity (decrease in luciferase emission) compared with DharmaFECT (MCF-7 cell) | Cancer associated gene expression (mouse tumor model) | Size of the tumor (mouse tumor model) | Cell toxicity (decrease in luciferase emission) compared with DharmaFECT (MCF-7 cell; [5]) | Transmittance (%) With siRNA (peptide %/siRNA %) 0.1%/0.01% [3] | Transmittance (%) With siRNA (peptide %/siRNA %) 0.5%/0.05% [3] | Transmittance (%) Peptide alone 0.1% (w/v) [3] [%] | Transmittance (%) Peptide alone 0.5% (w/v) [3] [%] | Appearance of peptide mixed with siRNA in transmittance study [3] | Nanostructure / self-assembly (previously reported) [4] |
| --- | --- | --- | --- | --- | --- | --- | --- | --- | --- | --- | --- | --- | --- | --- |
| 30 | – | – | CC(=O)N[C@@H](C)C(=O)N[C@@H](C)C(=O)N[C@@H](C)C(=O)N[C@@H](CCCCN)C(=O)N[C@@H](C)C(=O)N[C@@H](C)C(=O)N[C@@H](C)C(N)=O [Ac-A3KA3-NH2, Ac-AAAKAAA-NH2] (Ac-AAAKAAA-NH2) | nanospheres (i.e., spherical nanovesicles) | less toxic than DharmaFECT | suppressed | decreases | – | – | – | – | – | – | – |
| 85 | +21.9 | – | CC(=O)N[C@@H](C)C(=O)N[C@@H](C)C(=O)N[C@@H](C)C(=O)N[C@@H](C)C(=O)N[C@@H](CCCCN)C(N)=O [Ac-A4K-NH2, Ac-AAAAK-NH2] (Ac-AAAAK-NH2) | nanospheres (i.e., spherical nanovesicles) | – | suppressed | decreases | less toxic than DharmaFECT | – | – | – | – | – | – |
| – | – | 0.8 | CC(=O)N[C@@H](C)C(=O)N[C@@H](C)C(=O)N[C@@H](C)C(=O)N[C@@H](C)C(=O)N[C@@H](C)C(=O)N[C@@H](C)C(=O)N[C@@H](CCCCN)C(N)=O [Ac-A6K-NH2, reference compound] (Ac-AAAAAAK-NH2) | – | – | suppressed | decreases | less toxic than DharmaFECT | – | – | – | – | – | – |
| – | – | – | A6K2A6: exemplary conventional self-assembling peptide for comparison (AAAAAAKKAAAAAA) [reference compound] | – | – | – | – | – | 62.9* % | 12.7* % | 98.5 | 83.1 | – | – |
| – | – | – | AAAAAAK [A6K, reference compound] | – | – | – | – | – | 38.4* % | 15.3* % | 94.8 | 98.7 | cloudy and phase separated | nanotubes |
| – | – | – | AAAAAK [A5K, exemplary conventional self-assembling peptide for comparison, reference compound] | – | – | – | – | – | 95.5% | 22.7* % | 99.2 | 71.9 | cloudy and phase separated | – |
| – | – | – | AAAAK [A4K] | nanospheric structures (spherical nanovesicles) | – | – | – | – | 98.7% | 97.5% | 99.4 | 97.8 | transparent and substantially without phase separation | does not exhibit relevant self-assembly in water |
| – | – | – | AAAK [A3K] | nanospheric structures | – | – | – | – | 81.1% | 77.3% | 96.2 | 99.6 | transparent and substantially without phase separation | – |
| – | – | – | AAAKAAA [A3KA3] | nanospheric structures (spherical nanovesicles) | – | – | – | – | 98.7% | 88.2% | 99.2 | 97.5 | transparent and substantially without phase separation | – |

| Molecule | Diameter of the nanospheres [1] [nm] | Zeta potential of peptide alone [2] | Thickness of each layer of double layer structure ([1]; 0.1% (w/v)) [nm] | Nanostructure of peptide [1] | Cell toxicity (decrease in luciferase emission) compared with DharmaFECT (MCF-7 cell) | Cancer associated gene expression (mouse tumor model) | Size of the tumor (mouse tumor model) | Cell toxicity (decrease in luciferase emission) compared with DharmaFECT (MCF-7 cell; [5]) | Transmittance (%) With siRNA (peptide %/siRNA %) 0.1%/0.01% [3] | Transmittance (%) With siRNA (peptide %/siRNA %) 0.5%/0.05% [3] | Transmittance (%) Peptide alone 0.1% (w/v) [3] [%] | Transmittance (%) Peptide alone 0.5% (w/v) [3] [%] | Appearance of peptide mixed with siRNA in transmittance study [3] | Nanostructure / self-assembly (previously reported) [4] |
| --- | --- | --- | --- | --- | --- | --- | --- | --- | --- | --- | --- | --- | --- | --- |
| Ac-AAAK-NH2 [Ac-A3K-NH2] | 28 | – | – | nanospheres | – | – | – | – | – | – | – | – | – | – |

Reference: patent publication US20190231706A1, “SURFACTANT PEPTIDE NANOSTRUCTURES AND USES IN DRUG DELIVERY” (3-D Matrix, Ltd., priority 2017, published 2019)
